Data: patent publication US20160228506A1, “Compositions and Formulations for Prevention and Reduction of Tumorigenesis, Cancer Cell Proliferation and Invasion, and Methods of Production and Use Thereof in Cancer Treatment” (PRONUTRIA, INC., priority 2013, published 2016)

Experiments:
[1] = Thermostability, temperature of aggregation (ProteoStat Thermal Shift); assay type: physicochemical; set-up: key to Tagg: temperature in °C; settings: for Tagg (pH 7.1): Table E31D, heated 25° C. to 95° C.
Protocol: The thermostability of proteins in a buffer cocktail of Citric Acid and Dibasic Sodium Phosphate over a pH range of 2.8 to 7.1 (preparation described above in Table E31B) was determined using the ProteoStat® Thermal Shift Stability Kit (Enzo Life Sciences) according to the manufacturer's standard protocol. Briefly, protein solutions (˜10 mg/ml) containing 1× ProteoStat TS Detection Reagent were heated from 25° C. to 95° C. at a rate of 0.5° C. per 30 sec using a real-time PCR (rtPCR) thermocycler (BioRad) equipped with a plate reader (SynergyMx, Biotek) while monitoring the fluorescence with a Texas Red filter.

[2] = Intact half-life during simulated gastric fluid (SGF) digestion; settings: for SGF Half-life (t½): SGF pH 1.5, pepsin:polypeptide 1:20 w/w, 37° C., intact protein; for Half-life: purified proteins, chip electrophoresis
[3] = pH solubility; assay type: physicochemical; settings: for pH Range where Protein is >80% detected as Soluble and A650 <1 OD: Low: lower pH; for pH Range where Protein is >80% detected as Soluble and A650 <1 OD: High: upper pH
Protocol: pH Solubility. […] Protein was either lyophilized and then resuspended in buffer cocktail mixtures, or concentrated and then spiked into buffer cocktail mixtures at a final protein concentration of 5 to 30 mg/ml. As a control, protein was also dissolved in a solution of 8 M urea. Protein solutions were shaken for 10 min at room temperature. Turbidity of proteins was determined by measuring the absorbance of protein solutions at 650 nm. The protein solution was then centrifuged for 10 min at 1100×g to pellet undissolved or precipitated protein. The soluble protein fraction (supernatant) was sampled and protein concentration was measured by one or more of the following methods: Coomassie Plus Protein Assay (Pierce), Chip electrophoresis, gel electrophoresis, and/or absorbance at 280 nm. The pH range over which select proteins remained greater than 80% soluble as determined by Bradford and the A650 value are listed in Table E31C.

[4] = SGF digest of 168 nutritive polypeptide library, intact protein by LC-MS/MS; assay type: in vitro ADME; settings: for % Intact Protein at 10 min: 168 nutritive polypeptide library SGF digest, LC-MS/MS spectral counts; for % Remaining at 10 min: 168 nutritive polypeptide library, LC-MS/MS
Summary of the method: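 Spectral-count ratios (10 min vs 0 min, peak gel fraction plus neighbours) give the percent of each protein left intact after SGF digestion of a pooled, IMAC-purified 168-member recombinant library. Samples were gel-fractionated, trypsinised in-gel and run on Orbitrap nanoLC-MS/MS, requiring two unique peptides at 1% FDR.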

Row | Molecule | Tagg (pH 7.1) [1] | SGF Half-life (t½) [2] [min] | pH Range where Protein is >80% detected as Soluble and A650 <1 OD: Low [3] | pH Range where Protein is >80% detected as Soluble and A650 <1 OD: Other [3] | pH Range where Protein is >80% detected as Soluble and A650 <1 OD: High [3] | Half-life [2] [min] | % Intact Protein at 10 min [4] [%] | % Remaining at 10 min [4] [%] | Tagg ([1]; pH 2.8) | Tagg ([1]; pH 3.7) | Tagg ([1]; pH 4.3) | Tagg ([1]; pH 4.6) | Tagg ([1]; pH 5.0) | Tagg ([1]; pH 5.6) | Tagg ([1]; pH 6.0) | Tagg ([1]; pH 6.5) | Tagg ([1]; pH 7.1) | Tagg ([1]; pH 3.9)
1 | SEQID-00265: nutritive polypeptide (protein, listed as Bos taurus) SEGDRLRVELAEKANKLQNELDNVSTLLEEAEKKGIKFAKDAAGLESQLQDTQELLQEETRQKLNLSSRIRQLEEERSSLQEQQEEEEEARRSLEKQLQALQAQLTDTKKKVDDDLGTIENLEEAKKKLLKDVEVLSQRLEEKALAYDKLEKTKTRLQQELDDLLVDLDHQRQIVSNLEKKQKKFDQLLAEEKNISARYAEERDRAEAEAREKETKALSLARALEEALEAREEAERQNKQLRADMEDLMSSKDDVGKNVHELEKSKRALE | >95 | 29 | 5.1 | 3 | 9.1 | – | – | – | – | – | – | – | – | – | – | – | – | –
2 | SEQID-00305: nutritive polypeptide (protein, listed as Bos taurus) MPHQYPALTPEQKKELCDIAHRIVAPGKGILAADESTGSIAKRLQSIGTENTEENRRFYRQLLLTADDRVNPCIGGVILFHETLYQKADDGRPFPQVIKAKGGVVGIKVDKGVVPLAGTNGETTTQGLDGLSERCAQYKKDGADFAKWRCVLKIGEHTPSSLAIMENANVLARYASICQQNGIVPIVEPEILPDGDHDLKRCQYVTEKVLAAVYKALSDHHIYLEGTLLKPNMVTPGHACTQKYSHEEIAMATVTALRRTVPPAVPGITFLSGGQSEEEASINLNAINKCPLLKPWALTFSYGRALQASALKAWGGKKENLKAAQEEYVKRALANSLACQGKYTPSGKAGAAASESLFISNHAY | 48 | 0.2 | – | – | – | – | – | – | – | – | – | – | – | – | – | – | – | –
3 | SEQID-00241: nutritive polypeptide (protein, listed as Bos taurus) SELKKDIDDLELTLAKVEKEKHATENKVKNLTEEMAGLDETIAKLTKEKKALQEAHQQTLDDLQAEEDKVNTLTKAKTKLEQQVDDLEGSLEQEKKLRMDLERAKRKLEGDLKLA | >95 | 0.3 | 4.3 | – | 9.1 | – | – | – | – | – | – | – | – | – | – | – | – | –
4 | SEQID-00606: protein of the 168 nutritive polypeptide library (protein, Glycine max, protein of the 168 nutritive polypeptide library) MASEGDHHHHHHHHQDHDHHHHDHDHHHHHDGEGETNSWVGKDGKVYHSHDGLAPHSHEPIYSPGYFTRRAPPLLNRNFNERAFTVGIGGPVGTGKTALMLALCELLRENYSLAAVTNDIFTKEDGEFLVKHKALPEERIRAVETGGCPHAAIREDISINLGPLEELSNLFKADILLCESGGDNLAANFSRELADYIIYIIDVSGGDKIPRKGGPGITQADLLVINKTDLAPAIGADLAVMQRDALRMRDGGPFVFAQVKHKIGVEEIGNLVLQAWEAATGNKRH | 95 | 0.3 | – | – | – | 0.3 | 0 | 0 | – | – | – | – | – | – | – | – | – | –
5 | SEQID-00502: protein of the 168 nutritive polypeptide library (protein, Glycine max, protein of the 168 nutritive polypeptide library) MASQSNTKSVHDFTVKDARGNNVNLADYKGKVLLIVNVASQCGLTNSNYTELNQLYEKYKGKGLEILAFPCNQFGAQEPGTNEEIVEFACTRFKAEFPIFDKVDVNGDNAAPLYKFLKSSKGGLFGDSIKWNFSKFLVDKDGNVVDRYAPTTSPLSIEKDIKKLLDA | – | 0.6 | 7.1 | 2.8 | – | 0.6 | 9.7 | 9.7 | 95 | 95 | 95^ | 95^ | 77 | 77 | 76.5 | 78.5 | 95 | –
6 | SEQID-00287: nutritive polypeptide (protein, listed as Saccharomyces cerevisiae, source: /note="strain ATCC 204508 / S288c", nutritive polypeptide) LVLGALLDTSHKFRNLDKDLCEKCAKCISMIGVLDVTKHEFKRTTYSENEVYDLNDSVQTIKFLIWVINDILV | – | 3 | 6.2 | 2.6 | 9.1 | – | – | – | – | – | – | – | – | – | – | – | – | –
7 | SEQID-00269: nutritive polypeptide (protein) DLKKKLDDDLGTLENLEELKKKLLKDLELLSQRLEELALAYDKLEKTKTRLQQELDDLLLDLDHQ | >95 | 41 | 7.2 | – | 9.1 | – | – | – | – | – | – | – | – | – | – | – | – | –
8 | SEQID-00601: protein of the 168 nutritive polypeptide library (protein, listed as Agaricus bisporus, source: /note="var. bisporus"; source: /note="strain H97 / ATCC MYA-4626 / FGSC 10389", protein of the 168 nutritive polypeptide library) MTRSWEPGTQYNLGDVVEYNGDEYKIIQAHSSQSDWAPDRTPALWGKLPHRHHQQGQYQQQQECQPQQPQKTCYDYGKQEQAPQHSDSKEKKNWFGNITESQKQALEVGGGVALGAGLLGGAFAAWKHHQHKEEAHDSFEAWANAARSRAEEFRAKGPQGPATWVYNEGKHIPEQAILVGTEHNWNLYICRAYCDGGVQIGKASDVFKKGAVIGYKEDEHHLDKYEILLGDMRGLKWVQTGNSLDLASLGATPVEGGYENDHTRLYIARAFHKGAKHPGKVSERLDGAYIPYDGKEKCVKEYEVLCYL | – | 0.2 | – | – | – | 0.2 | 1.1 | 1.1 | 95 | 95 | 95^ | – | – | – | – | 45.5 | 48.5 | –
9 | SEQID-00100: nutritive polypeptide (protein, listed as Lactobacillus acidophilus) MSEEEIFNKIKDLIADNFEVDKDSITENTNFMNDLDADSIDLVEFILQLEDEFGAEIPDDEAEKIKTVGDAVSYIKSHQG | – | 2 | 4.3 | – | 7.1 | – | – | – | 95 | 95 | 83^ | 84^ | 95 | 95 | 95 | 95 | >95 | 95
10 | SEQID-00610: protein of the 168 nutritive polypeptide library (protein, listed as Saccharomyces cerevisiae, source: /note="strain ATCC 204508 / S288c", protein of the 168 nutritive polypeptide library) MVLEATVLVIDNSEYSRNGDFPRTRFEAQIDSVEFIFQAKRNSNPENTVGLISGAGANPRVLSTFTAEFGKILAGLHDTQIEGKLHMATALQIAQLTLKHRQNKVQHQRIVAFVCSPISDSRDELIRLAKTLKKNNVAVDIINFGEIEQNTELLDEFIAAVNNPQEETSHLLTVTPGPRLLYENIASSPIILEEGSSGMGAFGGSGGDSDANGTFMDFGVDPSMDPELAMALRLSMEEEQQRQERLRQQQQQQDQPEQSEQPEQHQDK | 54.5 | 0.4 | – | – | – | 0.4 | 3.3 | 3.3 | – | – | – | – | – | – | – | – | – | –
11 | SEQID-00226: nutritive polypeptide (protein, listed as Bos taurus) QLQALQAQLTDTKKKVDDDLGTIENLEEAKKKLLKDVEVLSQRLEEKALAYDKLEKTKTRLQQELDDLLVDLDHQRQIVSNLEKKQKKFDQLLAEEKNIS | >95 | 0.7 | 2.6 | – | 9.1 | – | – | – | – | – | – | – | – | – | – | – | – | –
